{"source": "patent US20200157197A1", "about": "(VENOMYX, published 2020)", "binders": {"B1": {"name": "Anti-cobrotoxin VHH (B9) (VHH)", "VHH": "QVQLQESGGGLAQAGGSLRLSCSASRNIFRVYGWYRQAPGKQREWVASITRDDSTAYADSVKGRFTISRDSAKNTMYLQMSSLRLEDTSTYYCAAQSISGTIQWGQGTQVTVSS", "notes": "also called VHH candidate against cobrotoxin"}}, "target": "T1, Cobrotoxin (N. Atra, Miami Serpentarium) (Naja atra, UniProt P60770 22-83)", "T1 sequence": "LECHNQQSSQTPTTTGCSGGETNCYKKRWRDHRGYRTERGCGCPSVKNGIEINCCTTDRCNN", "assay": "panning, phage ELISA and purified-VHH ELISA on coated toxin"}
{"binder": "B1", "values": [{"measurement": "binding result", "result": "binds"}]}
